Reference: PMC9482650, “Quantitative fragmentomics allow affinity mapping of interactomes” (Nature Communications, 2022)

Assays:
Experiment in all cases: holdup assay
Parameters in all cases: key: below the threshold = too weak to quantify, mostly under pKd 3.1 to 4
GRIP2_5, Q9C0E4 = target: GRIP2_5, Q9C0E4
PDLIM1, O00151 = target: PDLIM1, O00151
TJP1_2, Q07157 = target: TJP1_2, Q07157
DLG3_1, Q92796 = target: T1, DLG3_1, Q92796
T1 sequence (Q92796 125-227, limits assumed, looked up): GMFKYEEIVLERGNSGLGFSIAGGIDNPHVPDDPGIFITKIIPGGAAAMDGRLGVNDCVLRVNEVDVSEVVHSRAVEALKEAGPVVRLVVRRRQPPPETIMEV

PTPN13_1, Q12923 = target: T2, PTPN13_1, Q12923
T2 sequence (Q12923 1088-1188, limits assumed, looked up): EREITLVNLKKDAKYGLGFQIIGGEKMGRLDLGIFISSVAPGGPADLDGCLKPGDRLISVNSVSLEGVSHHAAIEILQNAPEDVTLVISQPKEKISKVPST

GRIP2_4, Q9C0E4 = target: GRIP2_4, Q9C0E4
SNTA1, Q13424 = target: T3, SNTA1, Q13424
T3 sequence (Q13424 82-180, limits assumed, looked up): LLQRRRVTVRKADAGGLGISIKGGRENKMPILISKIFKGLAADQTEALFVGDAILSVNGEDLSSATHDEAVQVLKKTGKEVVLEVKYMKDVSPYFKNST

MAST2, Q6P0Q8 = target: MAST2, Q6P0Q8
DLG4_2, P78352 = target: DLG4_2, P78352
IL16_1, Q14005 = target: IL16_1, Q14005
DFNB31_1, Q9P202 = target: T4, DFNB31_1, Q9P202
T4 sequence (Q9P202 135-233, limits assumed, looked up): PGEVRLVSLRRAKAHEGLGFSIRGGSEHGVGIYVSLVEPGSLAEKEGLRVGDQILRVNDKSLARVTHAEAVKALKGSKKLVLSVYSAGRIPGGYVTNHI

HTRA2, O43464 = target: HTRA2, O43464
APBA2_1, Q99767 = target: T5, APBA2_1, Q99767
T5 sequence (Q99767 563-664, limits assumed, looked up): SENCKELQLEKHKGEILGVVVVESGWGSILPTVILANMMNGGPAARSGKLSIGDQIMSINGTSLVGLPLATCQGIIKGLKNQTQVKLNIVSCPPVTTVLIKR

SHANK1, Q9Y566 = target: T6, SHANK1, Q9Y566
T6 sequence (Q9Y566 658-767, limits assumed, looked up): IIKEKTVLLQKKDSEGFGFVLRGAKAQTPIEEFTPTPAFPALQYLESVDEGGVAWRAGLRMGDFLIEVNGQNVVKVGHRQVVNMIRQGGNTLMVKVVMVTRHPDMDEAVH

SIPA1L2, Q9P2F8 = target: T7, SIPA1L2, Q9P2F8
T7 sequence (Q9P2F8 945-1036, limits assumed, looked up): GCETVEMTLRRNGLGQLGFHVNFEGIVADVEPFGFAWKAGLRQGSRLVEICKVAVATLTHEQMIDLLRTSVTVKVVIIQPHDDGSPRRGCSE

PTPN3, P26045 = target: PTPN3, P26045
MAGI1_2, Q96QZ7 = target: MAGI1_2, Q96QZ7
NHERF3_4, Q5T2W1 = target: T8, NHERF3_4, Q5T2W1
T8 sequence (Q5T2W1 373-468, limits assumed, looked up): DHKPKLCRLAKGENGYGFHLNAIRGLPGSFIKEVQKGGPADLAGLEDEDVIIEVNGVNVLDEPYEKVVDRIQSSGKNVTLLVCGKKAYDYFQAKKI

MAGI2_4, Q86UL8 = target: MAGI2_4, Q86UL8
DVL3, Q92997 = target: T9, DVL3, Q92997
T9 sequence (Q92997 244-331, limits assumed, looked up): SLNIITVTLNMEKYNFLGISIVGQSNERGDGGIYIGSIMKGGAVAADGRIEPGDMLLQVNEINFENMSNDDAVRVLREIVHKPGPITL

APBA2_2, Q99767 = target: T10, APBA2_2, Q99767
T10 sequence (Q99767 654-744, limits assumed, looked up): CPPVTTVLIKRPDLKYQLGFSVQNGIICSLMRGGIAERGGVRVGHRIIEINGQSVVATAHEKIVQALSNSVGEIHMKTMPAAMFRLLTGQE

ARHGEF12, Q9NZN5-2 = target: ARHGEF12, Q9NZN5-2
TJP1_3, Q07157 = target: TJP1_3, Q07157
Inadl_9, Q8NI35 = target: Inadl_9, Q8NI35
DLG4_1, P78352 = target: DLG4_1, P78352
PDZD7_3, Q9H5P4 = target: T11, PDZD7_3, Q9H5P4
T11 sequence (Q9H5P4 857-944, limits assumed, looked up): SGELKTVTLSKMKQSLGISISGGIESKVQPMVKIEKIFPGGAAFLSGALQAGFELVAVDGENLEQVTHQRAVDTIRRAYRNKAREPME

[1] = plain residues with an end cap or a label only (N-terminal biotin on a linker: ahx)
[2] = plain residues with an end cap or a label only (N-terminal biotin on a linker: ttds)

Chain of GRIP2_4, Q9C0E4 (Q9C0E4 446-548): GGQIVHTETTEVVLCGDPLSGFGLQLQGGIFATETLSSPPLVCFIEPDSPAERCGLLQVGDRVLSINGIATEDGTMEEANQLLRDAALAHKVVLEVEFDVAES
Chain of HTRA2, O43464 (O43464 355-458): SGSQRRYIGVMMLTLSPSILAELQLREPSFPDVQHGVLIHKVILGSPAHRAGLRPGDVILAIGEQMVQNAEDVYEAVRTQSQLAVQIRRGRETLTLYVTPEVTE
Chain of IL16_1, Q14005 (Q14005 210-306): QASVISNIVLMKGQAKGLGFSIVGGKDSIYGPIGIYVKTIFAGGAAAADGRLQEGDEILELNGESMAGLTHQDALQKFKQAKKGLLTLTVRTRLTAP
Chain of PDLIM1, O00151 (O00151 1-87): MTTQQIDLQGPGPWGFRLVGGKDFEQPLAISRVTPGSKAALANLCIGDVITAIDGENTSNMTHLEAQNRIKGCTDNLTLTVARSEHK
Chain of ARHGEF12, Q9NZN5-2 (Q9NZN5 other isoform, or with tags, fused parts or gaps): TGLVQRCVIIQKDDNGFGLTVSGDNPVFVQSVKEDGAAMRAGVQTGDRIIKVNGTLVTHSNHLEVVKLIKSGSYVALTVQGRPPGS
Chain of MAGI1_2, Q96QZ7 (Q96QZ7 456-580): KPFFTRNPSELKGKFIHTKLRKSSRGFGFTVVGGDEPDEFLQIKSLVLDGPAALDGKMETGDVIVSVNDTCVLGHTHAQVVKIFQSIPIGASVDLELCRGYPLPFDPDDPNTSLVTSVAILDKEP
Chain of PTPN3, P26045 (P26045 505-587): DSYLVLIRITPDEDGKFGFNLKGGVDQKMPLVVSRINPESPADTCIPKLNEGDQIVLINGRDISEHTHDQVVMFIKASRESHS
Chain of MAGI2_4, Q86UL8 (Q86UL8 772-865): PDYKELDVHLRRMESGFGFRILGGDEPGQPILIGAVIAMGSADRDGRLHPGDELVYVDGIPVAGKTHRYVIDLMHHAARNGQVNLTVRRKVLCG
Chain of TJP1_2, Q07157 (Q07157 181-274): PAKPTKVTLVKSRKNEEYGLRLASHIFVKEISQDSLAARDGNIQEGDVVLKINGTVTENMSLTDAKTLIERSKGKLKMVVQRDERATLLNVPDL
Chain of DLG4_2, P78352 (P78352 155-259): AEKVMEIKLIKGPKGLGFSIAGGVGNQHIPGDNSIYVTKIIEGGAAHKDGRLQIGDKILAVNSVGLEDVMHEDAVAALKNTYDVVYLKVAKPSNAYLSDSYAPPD
Chain of GRIP2_5, Q9C0E4 (Q9C0E4 544-642): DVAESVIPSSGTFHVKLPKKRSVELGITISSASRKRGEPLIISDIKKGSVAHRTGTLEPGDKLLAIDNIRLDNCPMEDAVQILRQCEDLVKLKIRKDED
Chain of Inadl_9, Q8NI35 (Q8NI35 1530-1615): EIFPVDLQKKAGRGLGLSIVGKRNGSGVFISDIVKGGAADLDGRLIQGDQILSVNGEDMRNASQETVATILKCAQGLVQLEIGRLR
Chain of MAST2, Q6P0Q8 (Q6P0Q8 1099-1202): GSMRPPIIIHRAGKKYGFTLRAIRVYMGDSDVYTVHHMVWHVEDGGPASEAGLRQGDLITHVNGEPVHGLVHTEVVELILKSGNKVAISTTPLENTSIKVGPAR
Chain of TJP1_3, Q07157 (Q07157 416-512): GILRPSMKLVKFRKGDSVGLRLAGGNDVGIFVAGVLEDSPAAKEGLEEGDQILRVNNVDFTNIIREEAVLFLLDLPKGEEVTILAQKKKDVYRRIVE
Chain of DLG4_1, P78352 (P78352 62-152): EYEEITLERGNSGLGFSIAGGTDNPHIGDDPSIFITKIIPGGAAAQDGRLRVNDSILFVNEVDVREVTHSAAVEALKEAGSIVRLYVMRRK

KEYDDELTFF [USH1C, Q9Y6N9]
pKd (GRIP2_5, Q9C0E4; [1]): below the threshold | pKd (PDLIM1, O00151; [1]): below the threshold | pKd (TJP1_2, Q07157; [1]): below the threshold | pKd (DLG3_1, Q92796; [1]): below the threshold | pKd (PTPN13_1, Q12923; [1]): below the threshold | pKd (GRIP2_4, Q9C0E4; [1]): below the threshold | pKd (SNTA1, Q13424; [1]): 3.49 | pKd (MAST2, Q6P0Q8; [1]): 5.3 | pKd (DLG4_2, P78352; [1]): below the threshold | pKd (IL16_1, Q14005; [1]): below the threshold | pKd (DFNB31_1, Q9P202; [1]): below the threshold | pKd (HTRA2, O43464; [1]): below the threshold | pKd (APBA2_1, Q99767; [1]): below the threshold | pKd (SHANK1, Q9Y566; [1]): 5.25 | pKd (SIPA1L2, Q9P2F8; [1]): below the threshold | pKd (PTPN3, P26045; [1]): 3.71 | pKd (MAGI1_2, Q96QZ7; [1]): below the threshold | pKd (NHERF3_4, Q5T2W1; [1]): 3.8 | pKd (MAGI2_4, Q86UL8; [1]): 3.51 | pKd (DVL3, Q92997; [1]): 3.62 | pKd (APBA2_2, Q99767; [1]): below the threshold | pKd (ARHGEF12, Q9NZN5-2; [1]): below the threshold | pKd (TJP1_3, Q07157; [1]): below the threshold | pKd (Inadl_9, Q8NI35; [1]): below the threshold | pKd (DLG4_1, P78352; [1]): below the threshold | pKd (PDZD7_3, Q9H5P4; [1]): 3.64

SHSSKGETAV [FZD7, O75084]
pKd (GRIP2_5, Q9C0E4; [2]): below the threshold | pKd (PDLIM1, O00151; [2]): below the threshold | pKd (TJP1_2, Q07157; [2]): below the threshold | pKd (DLG3_1, Q92796; [2]): 4.01 | pKd (PTPN13_1, Q12923; [2]): below the threshold | pKd (GRIP2_4, Q9C0E4; [2]): below the threshold | pKd (SNTA1, Q13424; [2]): 4.34 | pKd (MAST2, Q6P0Q8; [2]): 5.09 | pKd (DLG4_2, P78352; [2]): 4.69 | pKd (IL16_1, Q14005; [2]): 3.66 | pKd (DFNB31_1, Q9P202; [2]): 3.65 | pKd (HTRA2, O43464; [2]): below the threshold | pKd (APBA2_1, Q99767; [2]): below the threshold | pKd (SHANK1, Q9Y566; [2]): below the threshold | pKd (SIPA1L2, Q9P2F8; [2]): below the threshold | pKd (PTPN3, P26045; [2]): 4.84 | pKd (MAGI1_2, Q96QZ7; [2]): 3.9 | pKd (NHERF3_4, Q5T2W1; [2]): below the threshold | pKd (MAGI2_4, Q86UL8; [2]): below the threshold | pKd (DVL3, Q92997; [2]): below the threshold | pKd (APBA2_2, Q99767; [2]): below the threshold | pKd (ARHGEF12, Q9NZN5-2; [2]): 3.97 | pKd (TJP1_3, Q07157; [2]): below the threshold | pKd (Inadl_9, Q8NI35; [2]): below the threshold | pKd (DLG4_1, P78352; [2]): 4.4 | pKd (PDZD7_3, Q9H5P4; [2]): 3.86
